Measurements as given in patent publication US20200131274A1 (CRESCENDO BIOLOGICS, published 2020).
Positions count from the first letter of the chain named. Names and notes keep the numbering of the source.

B1: single VH domain antibody 2.18 (VHH)
VHH: EVQLVESGGGVVQPGRSLRLSCAASGFSFSGYGQHWVRQAPGKGLEWVAYISYDASNKYYADNVKGRFTISRDNSKNTLYLQMNSLRAEDTAVYYCAKDPAWGLRLGESSSYDFDIWGQGTMVTVSS
notes: Human single VH domain antibody (Humabody); C-terminal His tag, residues not tied
B2: single VH domain antibody 2.14 (VHH)
VHH: B1 VHH with Q34V
notes: as for B1
B3: single VH domain antibody 1.10 (VHH)
VHH: EVQLLESGGGLVQPGGSLRLSCAASGFSFSSYALSWVRQAPGKGLEWVSSIGENNATTDYADFVKGRFTISRDNSKNTLYLQMNSLRVEDTAVYYCVKDGVHWGQGTLVTVSS
notes: Human single VH domain antibody (Humabody)
B4: single VH domain antibody 1.14 (VHH)
VHH: B3 VHH with F63V
notes: as for B3
B5: single VH domain antibody 1.11 (VHH)
VHH: B3 VHH with A56D, F63N
notes: as for B3
B6: single VH domain antibody 1.13 (VHH)
VHH: B3 VHH with A56H, D62A, F63D
notes: as for B3
B7: single VH domain antibody 1.16 (VHH)
VHH: B3 VHH with A56H, F63T
notes: as for B3
B8: 1.18-6GS-2.1 (bispecific antibody)
chain: EVQLLESGGGLVQPGGSLRLSCAASGFSFSSYALSWVRQAPGKGLEWVSSIGENNATTDYAASVKGRFTISRDNSKNTLYLQMNSLRVEDTAVYYCVKDGVHWGQGTLVTVSSGGGGSGGGGSGGGGSGGGGSGGGGSGGGGSEVQLVESGGGVVQPGRSLRLSCAASGFSFSGYGMHWVRQAPGKGLEWVAYISYDGSNKYYADSVKGRFTISRDNSKNTLYLQMNSLRAEDTAVYYCAKDPAWGLRLGESSSYDFDIWGQGTMVTVSS
notes: linker (G4S)6
B9: 1.18-6GS-2.17 (bispecific antibody)
chain: B8 chain with G198A, S206N
notes: linker (G4S)6

What follows are binders tested against T1, human prostate specific membrane antigen (PSMA), full-length, on cells (human, UniProt Q04609 1-750) (assay: FMAT direct cell binding, CHO human PSMA cells).
T1 construct: also called huPSMA; human PSMA
T1 sequence (Q04609 whole entry): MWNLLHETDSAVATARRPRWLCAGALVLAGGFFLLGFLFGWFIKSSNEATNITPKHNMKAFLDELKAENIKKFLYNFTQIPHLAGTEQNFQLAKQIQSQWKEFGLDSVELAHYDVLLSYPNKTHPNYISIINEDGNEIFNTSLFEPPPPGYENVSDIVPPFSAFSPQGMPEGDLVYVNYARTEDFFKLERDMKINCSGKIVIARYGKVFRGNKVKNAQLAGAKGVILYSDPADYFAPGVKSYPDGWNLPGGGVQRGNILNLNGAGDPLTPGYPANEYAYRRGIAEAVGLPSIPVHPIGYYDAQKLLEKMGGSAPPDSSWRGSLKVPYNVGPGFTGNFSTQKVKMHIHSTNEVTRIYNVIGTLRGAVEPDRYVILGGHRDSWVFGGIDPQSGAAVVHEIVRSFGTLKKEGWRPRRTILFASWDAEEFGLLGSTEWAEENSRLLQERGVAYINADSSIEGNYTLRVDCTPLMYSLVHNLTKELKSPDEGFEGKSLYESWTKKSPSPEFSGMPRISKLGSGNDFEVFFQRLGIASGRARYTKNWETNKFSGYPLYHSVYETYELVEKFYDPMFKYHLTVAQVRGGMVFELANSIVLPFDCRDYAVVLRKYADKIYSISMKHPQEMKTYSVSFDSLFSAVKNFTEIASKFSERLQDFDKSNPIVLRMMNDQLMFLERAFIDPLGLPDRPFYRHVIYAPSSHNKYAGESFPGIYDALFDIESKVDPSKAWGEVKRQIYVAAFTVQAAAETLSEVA

EC50	Binder
0.104 nM	B1
0.11 nM	B2
0.0718 nM	B3
0.0588 nM	B4
0.0863 nM	B5
0.0513 nM	B6
0.068 nM	B7

These binders were tested against T2, cynomolgus PSMA, full-length, on CHO cells (cynomolgus, UniProt A0A2K5VNZ0 1-750) (assay: cell-based or functional assay).

Binder	His-ZAP cell killing, cyno PSMA Average EC50	His-ZAP cell killing, cyno PSMA EC50
B8	0.0058 nM	–
B9	0.0056 nM	–
B3	–	1.3 nM
B4	–	0.79 nM
B5	–	0.41 nM
B7	–	0.42 nM

What follows are binders tested against T1, human prostate specific membrane … (assay: cell-based or functional assay).

Binder	His-ZAP cell killing, human PSMA Average EC50
B8	0.0057 nM
B9	0.012 nM
B3	0.021 nM
B4	0.017 nM
B5	0.014 nM
B7	0.017 nM

These binders were tested against T1, human prostate specific membrane … (assay: FMAT direct cell binding, human PSMA-CHO cells).

EC50	Binder
0.294 nM	B8
0.278 nM	B9

These binders were tested against T1, human prostate specific membrane … (assay: FMAT cell binding, huPSMA CHO 1A10 cells, after 7 days in human serum at 37 C).

EC50	Binder
0.278 nM	B5
0.236 nM	B7

The binders below were run against T1, human prostate specific membrane … (assay: FMAT cell binding, huPSMA CHO 1A10 cells, after 4 days in human serum at 37 C).

EC50	Binder
0.227 nM	B5
0.242 nM	B7

What follows are binders tested against T1, human prostate specific membrane … (assay: FMAT cell binding, huPSMA CHO 1A10 cells, after 0 days in human serum at 37 C).

EC50	Binder
0.234 nM	B5
0.165 nM	B7

What follows are binders tested against T1, human prostate specific membrane … (assay: FMAT cell binding, huPSMA CHO 1A10 cells, after 1 day in human serum at 37 C).

EC50	Binder
0.208 nM	B5
0.243 nM	B7

Each binder was assayed against T2, cynomolgus PSMA, full-length, on CHO … (assay: FMAT direct cell binding, CHO cyno PSMA cells).

EC50	Binder
0.337 nM	B1
0.427 nM	B2
0.152 nM	B3
0.145 nM	B4
0.217 nM	B5
0.115 nM	B6
0.146 nM	B7

Molecular target: T1, human prostate specific membrane …
Assay: cell-based or functional assay
Remark: another data set of the same source

pHrodo Green internalization assay, human PSMA Average EC50 (M)	Binder
6.4e-10 M	B3
4.4e-10 M	B4
3.7e-10 M	B5
4.8e-10 M	B7

These binders were tested against T3, recombinant human PSMA (R&D, cat. no. 4234-ZN) (human, UniProt Q04609 44-750) (assay: Octet RED384 BLI, PSMA on sensor, VH series from 0.375 ug/ml).
T3 construct: Bought protein; also called rhPSMA; Recombinant PMSA
T3 sequence (Q04609 44-750 limits assumed): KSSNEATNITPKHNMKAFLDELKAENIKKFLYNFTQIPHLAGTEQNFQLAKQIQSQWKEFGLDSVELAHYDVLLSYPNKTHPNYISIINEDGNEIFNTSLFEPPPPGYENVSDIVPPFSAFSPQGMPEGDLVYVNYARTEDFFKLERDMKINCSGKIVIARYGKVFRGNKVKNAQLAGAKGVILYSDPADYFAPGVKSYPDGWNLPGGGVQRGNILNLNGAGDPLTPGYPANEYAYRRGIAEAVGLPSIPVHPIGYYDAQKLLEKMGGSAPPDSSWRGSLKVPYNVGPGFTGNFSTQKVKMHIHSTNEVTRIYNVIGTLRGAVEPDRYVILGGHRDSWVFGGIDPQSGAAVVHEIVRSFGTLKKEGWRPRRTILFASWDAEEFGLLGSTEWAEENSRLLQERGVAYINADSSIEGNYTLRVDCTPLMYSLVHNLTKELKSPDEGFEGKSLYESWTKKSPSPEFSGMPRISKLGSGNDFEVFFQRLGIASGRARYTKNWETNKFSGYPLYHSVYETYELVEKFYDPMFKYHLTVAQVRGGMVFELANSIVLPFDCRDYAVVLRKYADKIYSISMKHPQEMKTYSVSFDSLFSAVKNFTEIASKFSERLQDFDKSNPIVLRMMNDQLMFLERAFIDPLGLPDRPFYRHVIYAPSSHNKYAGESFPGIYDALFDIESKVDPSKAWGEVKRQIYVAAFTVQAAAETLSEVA

Kd	koff	Binder
0.67 nM	0.000418 s⁻¹	B3
0.46 nM	0.000335 s⁻¹	B4
0.8 nM	0.000495 s⁻¹	B5
0.44 nM	0.000365 s⁻¹	B7

What follows are binders tested against T1, human prostate specific membrane … (assay: FMAT direct cell binding, DU145 PSMA cells).

EC50	Binder
0.25 nM	B1
0.202 nM	B2
0.067 nM	B3
0.052 nM	B4
0.076 nM	B5
0.0456 nM	B6
0.0594 nM	B7

Each binder was assayed against T1, human prostate specific membrane … (assay: FMAT direct cell binding, LNCap cells).

EC50	Binder
0.0354 nM	B1
0.0332 nM	B2
0.133 nM	B3
0.0833 nM	B4
0.119 nM	B5
0.0386 nM	B6
0.0754 nM	B7
